Reference: US20260258121A1, “USES OF POMC-SPECIFIC ANTIBODY AND MARCHF6” (KOREA UNIVERSITY RESEARCH AND BUSINESS FOUNDATION, priority 2023, published 2026)
Where a SMILES comes first, the peptide text is derived from it. The star is where a group is joined. Cbz = O=C(OCc1ccccc1)*; CH2F = FC*

Key:
Gpx4 = assay: Immunoblotting of Gpx4 in POMCha^Δ1-26-expressing N43/5 cells treated with degradation inhibitors; type: cell-based, mouse; settings: 8 hours
Experimental: To determine whether full-length POMCha or cytosolic POMCha^[…] regulated the expression of Gpx4 protein, which was known to be degraded by ferroptosis induction, the mRNA level of Gpx4 was analyzed by qRT-PCR in […]/5 cells overexpressing full-length POMCha or cytosolic POMCha^[…], and subjected to CHX-chase assay. In addition, since Gpx4 degradation occurred through chaperone-mediated autophagy (CMA), macroautophagy, or the Ub-proteasome system, […]/5 cells overexpressing POMCha^[…] were treated with a lysosomal inhibitor such as chloroquine (CQ) or BafA1 (bafilomycin A1), a proteasome inhibitor MG132, or a macroautophagy inhibitor 3-MA (3-methyladenine), and the expression of Gpx4 protein was analyzed by immunoblotting. In addition, the expression of lysosome-associated protein 2A (Lamp2a), heat shock chaperones Hsc70 and Hsp90 was confirmed by immunoblotting in […]/5 cells overexpressing POMCha^[…], and changes in Gpx4 were analyzed by treatment with Lamp2a-specific siRNA (SCBT, sc-35791).

[1] = test system: POMCha-overexpressing Marchf6-KO N43/5 cells; assay: Cell viability (CellTiter-Glo) of POMCha-overexpressing Marchf6-KO N43/5 cells; type: cell-based, mouse; settings: for reduced viability of POMCha-overexpressing Marchf6-deficient N43/5 cells, effect of ectopic expression: ectopic expression by transfection
Experimental: To understand the functional or mechanistic association between Marchf6-mediated POMC degradation and ferroptosis, lipid ROS levels were compared in N43/5 cells overexpressing POMCha using a lipid peroxidation sensor C11-BODIPY^581/591. Specifically, WT or Marchf6-KO N43/5 cells were transfected with pCH4129 (POMCha) for 48 hours, and the medium was replaced with a culture medium containing 2 μM C11-BODIPY^581/591 (Thermo Fisher Scientific, D3861). The cells were incubated at 37° C. for 30 minutes, and the fluorescent probe-treated cells were trypsinized, transferred to a 15 ml Falcon tube, washed three times with 1 ml of ice-cold PBS, and then transferred to an ice-cold round-bottom polystyrene tube (Corning, 352235). The amount of intracellular lipid ROS in […] was measured using CytoFLEX LX (Beckman Coulter) using fluorescein isothiocyanate (FITC) and analyzed using FlowJo v10.8.1 (BD Bioscience). In addition, cell viability was analyzed using a CellTiter-Glo luminescent 3D cell viability assay kit (Promega, G9241) and a multimode plate reader (TECAN, Spark 10 M). At this time, when the inhibition of cell death was evaluated, WT or Marchf6-KO N43/5 cells expressing pCH60 (empty vector) or pCH4129 (POMCha) (final concentration of […] each) were treated with 5 μM Fer-1, 20 μM Z-VAD-FMK or 40 μM Nec-1, and incubated for 24 hours, and cell viability was analyzed. In addition, the intracellular NADP(H) level was measured using a NADP/NADPH-Glo assay kit (Promega, G9081) and a multimode plate reader (TECAN, Spark 10 M). Further, LDH activity was measured using the Cytotoxicity Detection Kit Plus (LDH) (Sigma, 4744926001).
Through Examples, since Marchf6 mediated the degradation of POMC, it was expected that loss of Marchf6 would make POMC neurons hypersensitive to POMC-induced ferroptosis. Therefore, pCH60 (empty vector), pCH879 (Marchf63f), pCH880 (Marchf6flag^C9A), or pCH4170 (Marchf6flag^P460A) was transfected into WT or Marchf6-KO N43/5 cells, and the degree of ferroptosis induction in POMC neurons was analyzed as in Example 6-1.

[2] = test system: Gpx4, CHOP, Nox2, and Nox4; assay: Immunoblotting of Gpx4, CHOP, Nox2 and Nox4 in POMCha-overexpressing Marchf6-KO N43/5 cells; type: cell-based, mouse
POMC = molecular target: T1, POMC (Homo sapiens, UniProt P01189); assay: Chemical crosslinking-based reciprocal co-immunoprecipitation assay in HEK293T cells; type: binding; settings: DSP crosslinking
T1 construct: expressed in transfected cells; host or cells: HEK293T
T1 sequence (P01189 1-267): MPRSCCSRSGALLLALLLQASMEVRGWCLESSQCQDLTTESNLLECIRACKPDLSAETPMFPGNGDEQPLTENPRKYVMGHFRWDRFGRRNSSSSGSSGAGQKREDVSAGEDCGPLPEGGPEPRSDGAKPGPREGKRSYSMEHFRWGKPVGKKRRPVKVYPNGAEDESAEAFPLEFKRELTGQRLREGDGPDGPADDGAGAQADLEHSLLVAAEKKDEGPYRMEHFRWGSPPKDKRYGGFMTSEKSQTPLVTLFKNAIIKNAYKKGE
Experimental: For the chemical crosslinking-based reciprocal co-immunoprecipitation assay, HEK293T cells were incubated at […] in a 10-cm dish plate and co-transfected with […] of pCH60 (empty vector) or pCH4129 (exogenous C-terminally hemagglutinin (ha)-tagged POMC: POMCha) and pCH879 (wild-type C-terminal triple flag-tagged Marchf6: Marchf63f) or pCH4170 (Marchf6^P460A) and incubated for 48 hours. The cells were washed with PBS, treated with 1 mM DSP [dithiobis(succinimidyl propionate)] (Thermo Fisher, 22585), and then the crosslinked cells were lysed and immunoprecipitated. The beads were washed three times with an IP-wash buffer (20 mM Tris-HCl, 137 mM NaCl, 0.1% NP-40, 2 mM EDTA, 10% glycerol) and bound proteins were eluted with a 2× SDS sample buffer. For immunoprecipitation with FLAG-agarose (Sigma-Aldrich, A2220), a 3× FLAG peptide (Protein Ark, GEN-3XFLAG-5) was used. Thereafter, the eluate was denatured and heated at 37° C. for 20 minutes, and SDS-PAGE and immunoblotting were performed using the corresponding antibody.

CO/C1=C\C(C)=C\[C@@H](C)[C@@H](O)[C@@H](C)C/C(C)=C/C=C/[C@H](OC)[C@@H]([C@@H](C)[C@@H](O)[C@H](C)[C@@]2(O)C[C@@H](O)[C@H](C)[C@@H](C(C)C)O2)OC1=O [BafA1, bafilomycin A1]
Gpx4 downregulation in POMCha^Δ1-26-expressing N43/5 cells, effect of treatment (Gpx4; BafA1 100 nM): restored

CCN(CC)CCCC(C)Nc1ccnc2cc(Cl)ccc12 (stereo not drawn) [CQ, chloroquine]
Gpx4 downregulation in POMCha^Δ1-26-expressing N43/5 cells, effect of treatment (Gpx4; CQ 50 μM): restored

CN1C(=O)C(Cc2c[nH]c3ccccc23)NC1=S (stereo not drawn) [Nec-1, necrostatin-1, reference compound]
decreased viability of POMCha-overexpressing Marchf6-KO N43/5 cells, effect of treatment ([1]; 40 μM Nec-1, 24 hours): not restored

COC(=O)C[C@H](NC(=O)[C@H](C)NC(=O)[C@@H](NC(=O)OCc1ccccc1)C(C)C)C(=O)CF [Z-VAD, Z-VAD-FMK, reference compound] (Cbz-Val-Ala-Asp(OMe)-CH2F)
decreased viability of POMCha-overexpressing Marchf6-KO N43/5 cells, effect of treatment ([1]; 20 μM Z-VAD-FMK, 24 hours): not restored

B1: Marchf63f^P460A: POMC-inaccessible Marchf6 mutant with Pro460-to-Ala mutation in the POMC-interacting region (pCH4170) (protein, UniProt Q6ZQ89 1-909, looked up, variant P460A)
E3 ubiquitin-protein ligase …: MDTAEEDICRVCRSEGTPEKPLYHPCVCTGSIKFIHQECLVQWLKHSRKEYCELCKHRFAFTPIYSPDMPSRLPIQDIFAGLVTSIGTAIRYWFHYTLVAFAWLGVVPLTACRIYKCLFTGSVSSLLTLPLDMLSTENLLADCLQGCFVVTCTLCAFISLVWLREQIVHGGAPIWLEHAAPPFNAAGHHQNEAPVGGNGAENPAADQPANPAGENAVLGENPDAQDGQAEEEEEDNEEEDDAGVEDAADANNGAQDDMNWNALEWDRAAEELTWERMLGLDGSLVFLEHVFWVVSLNTLFILVFAFCPYHIGHFSLVGLGFEEHVQASHFEGLITTIVGYILLAITLIICHALATLVKFHRSRRLLGVCYIVVKVSLLVVVEIGVFPLICGWWLDICSLEMFDATLKDRELSFQSAPGTTMFLHWLVGMVYVFYFASFILLLREVLRPGVLWFLRNLNDADFNPVQEMIHLPIYRHLRRFILSVIVFGSIVLLMLWLPIRIIKSLLPNFLPYNVMLYSDAPVSELSLELLLLQVVLPALLEQGHTRQWLKGLVRAWTVTAGYLLDLHSYLLGDQEENENSANQQVNNNQPARNNNAVPAGEGLHAAHQAILQQGGPVGFQPYRRPLNFPLRIFLLIVFMCITLLIASLICLTLPVFAGRWLMSFWTGTAKIHELYTAACGLYVCWLTIRAVTVLVAWMPQGRRVIFQKVKEWSLMIMKTLIVAVLLAGVVPLLLGLLFELVIVAPLRVPLDQTPLFYPWQDWALGVLHAKIIAAITLMGPQWWLKTVIEQVYANGIRNIDLHYIIRKLAAPVISVLLLSLCVPYVIASGAVPLLGVTAEMQNLVHRRIYPFLLMVVVLMGILSFQVRQFKRLYEHIKNDKYLVGQRLVNYERKSGKQGPSTPPPVSSQE
modifications: C-terminal triple FLAG tag
expression levels of Gpx4, CHOP, Nox2, and Nox4 proteins, effect of expression of construct [2]: not restored
binding of full-length POMC (co-immunoprecipitation) (POMC): did not bind
reduced viability of POMCha-overexpressing Marchf6-deficient N43/5 cells, effect of ectopic expression [1]: not restored

B2: Marchf63f^C9A: catalytically inactive Marchf6 mutant (pCH880) (protein, UniProt Q6ZQ89 1-909, looked up, variant C9A)
E3 ubiquitin-protein ligase …: MDTAEEDIARVCRSEGTPEKPLYHPCVCTGSIKFIHQECLVQWLKHSRKEYCELCKHRFAFTPIYSPDMPSRLPIQDIFAGLVTSIGTAIRYWFHYTLVAFAWLGVVPLTACRIYKCLFTGSVSSLLTLPLDMLSTENLLADCLQGCFVVTCTLCAFISLVWLREQIVHGGAPIWLEHAAPPFNAAGHHQNEAPVGGNGAENPAADQPANPAGENAVLGENPDAQDGQAEEEEEDNEEEDDAGVEDAADANNGAQDDMNWNALEWDRAAEELTWERMLGLDGSLVFLEHVFWVVSLNTLFILVFAFCPYHIGHFSLVGLGFEEHVQASHFEGLITTIVGYILLAITLIICHALATLVKFHRSRRLLGVCYIVVKVSLLVVVEIGVFPLICGWWLDICSLEMFDATLKDRELSFQSAPGTTMFLHWLVGMVYVFYFASFILLLREVLRPGVLWFLRNLNDPDFNPVQEMIHLPIYRHLRRFILSVIVFGSIVLLMLWLPIRIIKSLLPNFLPYNVMLYSDAPVSELSLELLLLQVVLPALLEQGHTRQWLKGLVRAWTVTAGYLLDLHSYLLGDQEENENSANQQVNNNQPARNNNAVPAGEGLHAAHQAILQQGGPVGFQPYRRPLNFPLRIFLLIVFMCITLLIASLICLTLPVFAGRWLMSFWTGTAKIHELYTAACGLYVCWLTIRAVTVLVAWMPQGRRVIFQKVKEWSLMIMKTLIVAVLLAGVVPLLLGLLFELVIVAPLRVPLDQTPLFYPWQDWALGVLHAKIIAAITLMGPQWWLKTVIEQVYANGIRNIDLHYIIRKLAAPVISVLLLSLCVPYVIASGAVPLLGVTAEMQNLVHRRIYPFLLMVVVLMGILSFQVRQFKRLYEHIKNDKYLVGQRLVNYERKSGKQGPSTPPPVSSQE
modifications: C-terminal triple FLAG tag
expression levels of Gpx4, CHOP, Nox2, and Nox4 proteins, effect of expression of construct [2]: not restored
reduced viability of POMCha-overexpressing Marchf6-deficient N43/5 cells, effect of ectopic expression [1]: not restored
